In US20220056091A1 (BRIGHT PEAK THERAPEUTICS, published 2022):
Residue numbers refer to the chain shown, from its start.

Legend:
Assay in all cases: cell-based or functional assay
[1] = molecular target: T1, Modified IL-18 polypeptide of SEQ ID NO: 10 (E06K, K53A, S55A, T63A) (human, UniProt Q14116 37-193)
T1 chain: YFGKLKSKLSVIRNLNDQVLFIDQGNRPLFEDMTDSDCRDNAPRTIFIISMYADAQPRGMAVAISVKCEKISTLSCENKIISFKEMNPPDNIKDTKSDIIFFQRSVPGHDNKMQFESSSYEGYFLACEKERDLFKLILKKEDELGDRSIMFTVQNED

[2] = molecular target: T2, Modified IL-18 polypeptide of SEQ ID NO: 18 (E06K, K53A, T63A) (human, UniProt Q14116 37-193)
T2 chain: T1 chain with A55S

[3] = molecular target: T3, Modified IL-18 polypeptide of SEQ ID NO: 23 (K53A, T63A, C38S, C68S, C76S, C127S, K70C) (human, UniProt Q14116 37-193)
T3 chain: T1 chain with K6E, C38S, A55S, C68S, K70C, C76S, C127S

[4] = molecular target: Modified IL-18 polypeptide of SEQ ID NO: 4 (K53A) (human, UniProt Q14116 37-193)
[5] = molecular target: Modified IL-18 polypeptide of SEQ ID NO: 7 (E06K, K53A) (human, UniProt Q14116 37-193)
[6] = molecular target: Modified IL-18 polypeptide of SEQ ID NO: 9 (K53A, S55A) (human, UniProt Q14116 37-193)
[7] = molecular target: T4, IL-18 polypeptide of SEQ ID NO: 1 (native sequence, human IL-18 37-193) (human, UniProt Q14116 37-193)
T4 sequence: T1 chain with K6E, A53K, A55S, A63T

B1: Fc fused human IL-18BP isoform a (IL-18BPa) (Fc fusion, UniProt O95998 31-194, looked up, not shown: a dimerising Fc or GST)
chain: TPVSQTTTAATASVRSTKDPCPSQPPVFPAAKQCPALEVTWPEVEVPLNGTLSLSCVACSRFPNFSILYWLGNGSFIEHLPGRLWEGSTSRERGSTGTQLCKALVLEQLTPALHSTNFSCVLVDPEQVVQRHVVLAQLWAGLRATLPPTQEALPSSHSSPQQQG
- IC50 (nM), IL-18BPa inhibition of IFNγ release by NK-92 cells (1 nM IL-18 analyte) [1]: 1060 nM
- IC50 (nM), IL-18BPa inhibition of IFNγ release by NK-92 cells (1 nM IL-18 analyte) [2]: > 1000 nM
- IC50 (nM), IL-18BPa inhibition of IFNγ release by NK-92 cells (1 nM IL-18 analyte) [3]: > 1000 nM
- IC50 (nM), IL-18BPa inhibition of IFNγ release by NK-92 cells (1 nM IL-18 analyte) [4]: 27.3 nM
- IC50 (nM), IL-18BPa inhibition of IFNγ release by NK-92 cells (1 nM IL-18 analyte) [5]: > 703 nM
- IC50 (nM), IL-18BPa inhibition of IFNγ release by NK-92 cells (1 nM IL-18 analyte) [6]: 37.3 nM
- IC50 (read off the curve); IFNγ production by NK-92 cells stimulated with IL-18 WT [7]: ~1 nM
